Assay results: patent publication US20150344570A1 (published 2015)

B1: GpH7-A5/GpH7-B3 variant Y300_01G/GpL16-k0 (heterodimerized antibody, He Ab) (antibody, human IgG1, kappa)
heavy 1: not shown
heavy 2: not shown
light: DIVMTQSPLSLPVTPGEPASISCQASESLVHSNRNTYLHWYLQKPGQSPQLLIYKVSNRFSGVPDRFSGSGSGTDFTLKISRVEAEDVGVYYCSQNTHVPPTFGQGTKVEIERTVAAPSVFIFPPSDEQLKSGTASVVCLLNNFYPREAKVQWKVDNALQSGNSQESVTEQDSKDSTYSLSSTLTLSKADYEKHKVYACEVTHQGLSSPVTKSFNRGEC
notes: Anti-glypican-3 IgG1; alteration only in the GpH7-B3 (K439E) chain; other H chain is GpH7-A5 (D356K/H435R)
B2: GpH7-A5/GpH7-B3 variant Y296_19Q/GpL16-k0 (heterodimerized antibody, He Ab) (antibody, human IgG1, kappa)
heavy 1: not shown
heavy 2: not shown
light: B1 light
notes: as for B1
B3: GpH7-A5/GpH7-B3 variant Y296_14T/GpL16-k0 (heterodimerized antibody, He Ab) (antibody, human IgG1, kappa)
heavy 1: not shown
heavy 2: not shown
light: B1 light
notes: as for B1
B4: GpH7-A5/GpH7-B3 variant Y300_10E/GpL16-k0 (heterodimerized antibody, He Ab) (antibody, human IgG1, kappa)
heavy 1: not shown
heavy 2: not shown
light: B1 light
notes: as for B1
B5: GpH7-A5/GpH7-B3 variant Y296_12R/GpL16-k0 (heterodimerized antibody, He Ab) (antibody, human IgG1, kappa)
heavy 1: not shown
heavy 2: not shown
light: B1 light
notes: as for B1
B6: GpH7-A5/GpH7-B3 variant T335_16H/GpL16-k0 (heterodimerized antibody, He Ab) (antibody, human IgG1, kappa)
heavy 1: not shown
heavy 2: not shown
light: B1 light
notes: as for B1
B7: GpH7-A5/GpH7-B3 variant Y296_20W/GpL16-k0 (heterodimerized antibody, He Ab) (antibody, human IgG1, kappa)
heavy 1: not shown
heavy 2: not shown
light: B1 light
notes: as for B1
B8: GpH7-A5/GpH7-B3 variant Y300_08L/GpL16-k0 (heterodimerized antibody, He Ab) (antibody, human IgG1, kappa)
heavy 1: not shown
heavy 2: not shown
light: B1 light
notes: as for B1
B9: GpH7-A5/GpH7-B3 variant Y300_11K/GpL16-k0 (heterodimerized antibody, He Ab) (antibody, human IgG1, kappa)
heavy 1: not shown
heavy 2: not shown
light: B1 light
notes: as for B1
B10: GpH7-A5/GpH7-B3 variant Y296_06M/GpL16-k0 (heterodimerized antibody, He Ab) (antibody, human IgG1, kappa)
heavy 1: not shown
heavy 2: not shown
light: B1 light
notes: as for B1
B11: GpH7-A5/GpH7-B3 variant Y300_20W/GpL16-k0 (heterodimerized antibody, He Ab) (antibody, human IgG1, kappa)
heavy 1: not shown
heavy 2: not shown
light: B1 light
notes: as for B1
B12: GpH7-A5/GpH7-B3 variant Y296_11K/GpL16-k0 (heterodimerized antibody, He Ab) (antibody, human IgG1, kappa)
heavy 1: not shown
heavy 2: not shown
light: B1 light
notes: as for B1
B13: GpH7-A5/GpH7-B3 variant T335_19Q/GpL16-k0 (heterodimerized antibody, He Ab) (antibody, human IgG1, kappa)
heavy 1: not shown
heavy 2: not shown
light: B1 light
notes: as for B1
B14: GpH7-A5/GpH7-B3 variant Y296_13S/GpL16-k0 (heterodimerized antibody, He Ab) (antibody, human IgG1, kappa)
heavy 1: not shown
heavy 2: not shown
light: B1 light
notes: as for B1
B15: GpH7-A5/GpH7-B3 variant T335_20W/GpL16-k0 (heterodimerized antibody, He Ab) (antibody, human IgG1, kappa)
heavy 1: not shown
heavy 2: not shown
light: B1 light
notes: as for B1
B16: GpH7-A5/GpH7-B3 variant Y300_14T/GpL16-k0 (heterodimerized antibody, He Ab) (antibody, human IgG1, kappa)
heavy 1: not shown
heavy 2: not shown
light: B1 light
notes: as for B1
B17: GpH7-A5/GpH7-B3 variant Y300_02A/GpL16-k0 (heterodimerized antibody, He Ab) (antibody, human IgG1, kappa)
heavy 1: not shown
heavy 2: not shown
light: B1 light
notes: as for B1
B18: GpH7-A5/GpH7-B3 variant Y300_06M/GpL16-k0 (heterodimerized antibody, He Ab) (antibody, human IgG1, kappa)
heavy 1: not shown
heavy 2: not shown
light: B1 light
notes: as for B1
B19: GpH7-A5/GpH7-B3 variant Y300_13S/GpL16-k0 (heterodimerized antibody, He Ab) (antibody, human IgG1, kappa)
heavy 1: not shown
heavy 2: not shown
light: B1 light
notes: as for B1
B20: GpH7-A5/GpH7-B3 variant Y296_10E/GpL16-k0 (heterodimerized antibody, He Ab) (antibody, human IgG1, kappa)
heavy 1: not shown
heavy 2: not shown
light: B1 light
notes: as for B1
B21: GpH7-A5/GpH7-B3 variant Y296_18N/GpL16-k0 (heterodimerized antibody, He Ab) (antibody, human IgG1, kappa)
heavy 1: not shown
heavy 2: not shown
light: B1 light
notes: as for B1
B22: GpH7-A5/GpH7-B3 variant Y296_16H/GpL16-k0 (heterodimerized antibody, He Ab) (antibody, human IgG1, kappa)
heavy 1: not shown
heavy 2: not shown
light: B1 light
notes: as for B1
B23: GpH7-A5/GpH7-B3 variant Y300_19Q/GpL16-k0 (heterodimerized antibody, He Ab) (antibody, human IgG1, kappa)
heavy 1: not shown
heavy 2: not shown
light: B1 light
notes: as for B1
B24: GpH7-A5/GpH7-B3 variant T335_18N/GpL16-k0 (heterodimerized antibody, He Ab) (antibody, human IgG1, kappa)
heavy 1: not shown
heavy 2: not shown
light: B1 light
notes: as for B1
B25: GpH7-A5/GpH7-B3 variant Y300_09D/GpL16-k0 (heterodimerized antibody, He Ab) (antibody, human IgG1, kappa)
heavy 1: not shown
heavy 2: not shown
light: B1 light
notes: as for B1
B26: GpH7-A5/GpH7-B3 variant Y300_03V/GpL16-k0 (heterodimerized antibody, He Ab) (antibody, human IgG1, kappa)
heavy 1: not shown
heavy 2: not shown
light: B1 light
notes: as for B1
B27: GpH7-A5/GpH7-B3 variant D265_01G/GpL16-k0 (antibody, human IgG1, kappa)
heavy 1: not shown
heavy 2: not shown
light: B1 light
notes: He Ab; IgG1, mutation in one H chain
B28: GpH7-A5/GpH7-B3 variant D265_07I/GpL16-k0 (antibody, human IgG1, kappa)
heavy 1: not shown
heavy 2: not shown
light: B1 light
notes: as for B27
B29: GpH7-A5/GpH7-B3 variant D265_06M/GpL16-k0 (antibody, human IgG1, kappa)
heavy 1: not shown
heavy 2: not shown
light: B1 light
notes: as for B27
B30: GpH7-A5/GpH7-B3 variant D265_03V/GpL16-k0 (antibody, human IgG1, kappa)
heavy 1: not shown
heavy 2: not shown
light: B1 light
notes: as for B27
B31: GpH7-A5/GpH7-B3 variant D265_02A/GpL16-k0 (antibody, human IgG1, kappa)
heavy 1: not shown
heavy 2: not shown
light: B1 light
notes: as for B27
B32: GpH7-A5/GpH7-B3 variant D265_04F/GpL16-k0 (antibody, human IgG1, kappa)
heavy 1: not shown
heavy 2: not shown
light: B1 light
notes: as for B27
B33: GpH7-B3 variant Y300_03V/GpL16-k0 (homodimerized antibody, Ho Ab) (antibody, human IgG1, kappa)
heavy: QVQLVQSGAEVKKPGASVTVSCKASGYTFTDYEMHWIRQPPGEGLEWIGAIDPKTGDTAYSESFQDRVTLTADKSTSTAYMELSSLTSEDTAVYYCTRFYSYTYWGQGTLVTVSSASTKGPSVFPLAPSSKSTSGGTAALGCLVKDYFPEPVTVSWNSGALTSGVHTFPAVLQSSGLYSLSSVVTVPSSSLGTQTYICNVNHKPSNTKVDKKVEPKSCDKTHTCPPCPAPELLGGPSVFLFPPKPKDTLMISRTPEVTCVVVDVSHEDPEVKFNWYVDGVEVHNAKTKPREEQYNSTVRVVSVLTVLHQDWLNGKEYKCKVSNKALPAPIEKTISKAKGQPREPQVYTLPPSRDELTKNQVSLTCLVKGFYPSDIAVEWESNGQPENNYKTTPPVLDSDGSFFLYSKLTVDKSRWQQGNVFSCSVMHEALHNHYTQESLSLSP
light: B1 light
notes: Anti-glypican-3 IgG1 (G1d with K439E); same alteration in both H chains
B34: GpH7-B3 variant Y300_19Q/GpL16-k0 (homodimerized antibody, Ho Ab) (antibody, human IgG1, kappa)
heavy: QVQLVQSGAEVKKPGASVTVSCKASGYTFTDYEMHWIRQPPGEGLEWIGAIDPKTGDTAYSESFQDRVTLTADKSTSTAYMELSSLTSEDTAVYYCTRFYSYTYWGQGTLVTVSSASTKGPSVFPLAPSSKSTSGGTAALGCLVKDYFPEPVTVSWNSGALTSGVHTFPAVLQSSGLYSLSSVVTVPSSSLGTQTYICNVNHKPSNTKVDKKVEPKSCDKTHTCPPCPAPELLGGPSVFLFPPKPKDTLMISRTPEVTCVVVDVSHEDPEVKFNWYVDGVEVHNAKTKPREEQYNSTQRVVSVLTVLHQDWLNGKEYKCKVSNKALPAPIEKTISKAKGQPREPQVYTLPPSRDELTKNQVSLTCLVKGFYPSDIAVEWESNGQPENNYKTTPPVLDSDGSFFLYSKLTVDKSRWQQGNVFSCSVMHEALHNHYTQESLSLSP
light: B1 light
notes: as for B33
B35: GpH7-B3 variant Y300_14T/GpL16-k0 (homodimerized antibody, Ho Ab) (antibody, human IgG1, kappa)
heavy: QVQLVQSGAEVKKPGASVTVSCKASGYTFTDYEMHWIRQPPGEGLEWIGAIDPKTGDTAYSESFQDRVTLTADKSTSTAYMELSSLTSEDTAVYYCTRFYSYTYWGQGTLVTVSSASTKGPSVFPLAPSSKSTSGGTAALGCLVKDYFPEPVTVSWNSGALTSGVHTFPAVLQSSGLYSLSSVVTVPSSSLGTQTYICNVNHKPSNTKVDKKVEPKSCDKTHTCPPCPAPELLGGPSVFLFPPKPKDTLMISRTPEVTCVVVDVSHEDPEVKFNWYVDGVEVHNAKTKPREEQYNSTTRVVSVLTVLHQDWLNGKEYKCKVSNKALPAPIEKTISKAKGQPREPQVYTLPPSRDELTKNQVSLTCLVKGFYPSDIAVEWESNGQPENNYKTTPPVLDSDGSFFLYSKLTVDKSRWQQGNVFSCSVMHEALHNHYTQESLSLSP
light: B1 light
notes: as for B33
B36: GpH7-B3 variant Y296_20W/GpL16-k0 (homodimerized antibody, Ho Ab) (antibody, human IgG1, kappa)
heavy: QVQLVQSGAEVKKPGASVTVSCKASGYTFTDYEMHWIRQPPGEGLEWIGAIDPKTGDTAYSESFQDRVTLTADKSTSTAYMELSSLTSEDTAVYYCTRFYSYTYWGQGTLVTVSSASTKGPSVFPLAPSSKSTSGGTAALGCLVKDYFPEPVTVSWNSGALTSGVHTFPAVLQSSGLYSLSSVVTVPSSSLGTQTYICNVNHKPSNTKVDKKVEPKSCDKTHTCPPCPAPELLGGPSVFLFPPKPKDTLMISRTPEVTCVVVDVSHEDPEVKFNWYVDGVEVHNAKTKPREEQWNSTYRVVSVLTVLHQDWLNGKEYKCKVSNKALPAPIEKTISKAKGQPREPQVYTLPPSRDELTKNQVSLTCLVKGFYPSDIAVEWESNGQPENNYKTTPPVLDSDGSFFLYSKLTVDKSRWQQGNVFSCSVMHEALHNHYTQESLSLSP
light: B1 light
notes: as for B33
B37: GpH7-B3 variant Y300_11K/GpL16-k0 (homodimerized antibody, Ho Ab) (antibody, human IgG1, kappa)
heavy: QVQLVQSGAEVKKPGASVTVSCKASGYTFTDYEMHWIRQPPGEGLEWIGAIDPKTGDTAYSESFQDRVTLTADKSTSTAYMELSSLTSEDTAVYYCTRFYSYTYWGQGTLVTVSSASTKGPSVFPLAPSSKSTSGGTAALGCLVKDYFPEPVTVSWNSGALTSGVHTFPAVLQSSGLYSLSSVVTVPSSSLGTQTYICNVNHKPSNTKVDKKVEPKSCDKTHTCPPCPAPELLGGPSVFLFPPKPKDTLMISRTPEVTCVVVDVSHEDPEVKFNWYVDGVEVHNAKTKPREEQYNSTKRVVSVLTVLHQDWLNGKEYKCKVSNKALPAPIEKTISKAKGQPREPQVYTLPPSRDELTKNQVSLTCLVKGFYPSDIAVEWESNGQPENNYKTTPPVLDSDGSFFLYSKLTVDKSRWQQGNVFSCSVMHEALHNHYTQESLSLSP
light: B1 light
notes: as for B33
B38: GpH7-B3 variant Y300_10E/GpL16-k0 (homodimerized antibody, Ho Ab) (antibody, human IgG1, kappa)
heavy: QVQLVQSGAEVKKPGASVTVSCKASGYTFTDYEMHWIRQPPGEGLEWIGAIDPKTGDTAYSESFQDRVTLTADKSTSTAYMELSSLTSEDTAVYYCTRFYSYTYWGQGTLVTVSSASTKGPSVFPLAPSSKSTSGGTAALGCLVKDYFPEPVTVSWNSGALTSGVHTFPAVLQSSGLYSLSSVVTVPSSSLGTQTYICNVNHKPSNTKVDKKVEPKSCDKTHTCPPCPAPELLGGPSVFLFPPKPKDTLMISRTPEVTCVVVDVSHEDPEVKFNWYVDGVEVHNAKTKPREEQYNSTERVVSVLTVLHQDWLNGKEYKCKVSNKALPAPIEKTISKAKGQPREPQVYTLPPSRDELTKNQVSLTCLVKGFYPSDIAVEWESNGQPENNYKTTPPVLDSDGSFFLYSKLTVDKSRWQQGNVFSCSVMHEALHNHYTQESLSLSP
light: B1 light
notes: as for B33
B39: GpH7-B3 variant Y300_06M/GpL16-k0 (homodimerized antibody, Ho Ab) (antibody, human IgG1, kappa)
heavy: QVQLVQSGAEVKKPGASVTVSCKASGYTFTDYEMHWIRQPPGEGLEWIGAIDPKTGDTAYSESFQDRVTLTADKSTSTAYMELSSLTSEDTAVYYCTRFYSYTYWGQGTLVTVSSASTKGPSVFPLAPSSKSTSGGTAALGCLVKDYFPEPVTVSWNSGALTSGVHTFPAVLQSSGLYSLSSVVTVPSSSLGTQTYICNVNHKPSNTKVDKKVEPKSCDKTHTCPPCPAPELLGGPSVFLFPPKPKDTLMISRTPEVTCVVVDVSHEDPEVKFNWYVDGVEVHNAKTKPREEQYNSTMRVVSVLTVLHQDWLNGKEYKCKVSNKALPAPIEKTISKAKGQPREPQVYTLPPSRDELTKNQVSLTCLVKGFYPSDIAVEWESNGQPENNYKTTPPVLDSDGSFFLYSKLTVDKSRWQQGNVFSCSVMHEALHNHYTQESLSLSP
light: B1 light
notes: as for B33
B40: GpH7-B3 variant Y300_08L/GpL16-k0 (homodimerized antibody, Ho Ab) (antibody, human IgG1, kappa)
heavy: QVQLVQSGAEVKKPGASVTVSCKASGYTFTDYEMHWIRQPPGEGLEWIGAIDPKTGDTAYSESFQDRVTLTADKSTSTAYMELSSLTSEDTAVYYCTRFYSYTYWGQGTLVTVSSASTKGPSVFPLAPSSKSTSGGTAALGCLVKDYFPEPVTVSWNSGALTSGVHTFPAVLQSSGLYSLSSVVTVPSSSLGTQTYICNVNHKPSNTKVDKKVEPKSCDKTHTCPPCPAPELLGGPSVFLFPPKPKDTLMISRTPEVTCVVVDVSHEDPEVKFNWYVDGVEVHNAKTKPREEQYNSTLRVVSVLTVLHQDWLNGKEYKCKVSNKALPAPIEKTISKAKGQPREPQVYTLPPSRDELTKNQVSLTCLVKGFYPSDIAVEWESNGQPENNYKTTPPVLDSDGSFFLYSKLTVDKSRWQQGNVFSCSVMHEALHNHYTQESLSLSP
light: B1 light
notes: as for B33
B41: GpH7-B3 variant Y300_09D/GpL16-k0 (homodimerized antibody, Ho Ab) (antibody, human IgG1, kappa)
heavy: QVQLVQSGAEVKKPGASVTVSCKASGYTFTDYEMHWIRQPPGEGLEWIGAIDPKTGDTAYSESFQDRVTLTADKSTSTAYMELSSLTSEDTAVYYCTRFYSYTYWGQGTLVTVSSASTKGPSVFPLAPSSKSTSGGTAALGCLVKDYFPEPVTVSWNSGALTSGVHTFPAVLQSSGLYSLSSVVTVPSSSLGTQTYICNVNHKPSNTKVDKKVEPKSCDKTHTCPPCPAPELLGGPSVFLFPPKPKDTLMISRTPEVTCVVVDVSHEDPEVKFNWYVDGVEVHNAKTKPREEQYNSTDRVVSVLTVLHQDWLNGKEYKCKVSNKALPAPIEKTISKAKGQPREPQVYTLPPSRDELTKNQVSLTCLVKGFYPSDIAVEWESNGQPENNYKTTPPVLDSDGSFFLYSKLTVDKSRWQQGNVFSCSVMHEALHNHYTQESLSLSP
light: B1 light
notes: as for B33
B42: GpH7-B3 variant Y300_20W/GpL16-k0 (homodimerized antibody, Ho Ab) (antibody, human IgG1, kappa)
heavy: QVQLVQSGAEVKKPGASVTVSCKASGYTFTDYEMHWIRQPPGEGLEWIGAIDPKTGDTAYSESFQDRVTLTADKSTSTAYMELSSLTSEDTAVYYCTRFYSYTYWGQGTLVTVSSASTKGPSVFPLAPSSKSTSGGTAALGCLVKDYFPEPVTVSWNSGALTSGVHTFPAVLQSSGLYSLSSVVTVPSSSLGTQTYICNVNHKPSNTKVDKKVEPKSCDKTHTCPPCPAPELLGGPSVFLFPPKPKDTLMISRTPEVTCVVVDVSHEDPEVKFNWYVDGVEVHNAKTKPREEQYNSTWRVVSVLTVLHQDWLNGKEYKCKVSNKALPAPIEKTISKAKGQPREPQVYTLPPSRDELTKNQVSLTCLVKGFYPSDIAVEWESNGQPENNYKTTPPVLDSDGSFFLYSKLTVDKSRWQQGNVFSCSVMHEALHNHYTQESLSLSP
light: B1 light
notes: as for B33
B43: GpH7-B3 variant Y300_13S/GpL16-k0 (homodimerized antibody, Ho Ab) (antibody, human IgG1, kappa)
heavy: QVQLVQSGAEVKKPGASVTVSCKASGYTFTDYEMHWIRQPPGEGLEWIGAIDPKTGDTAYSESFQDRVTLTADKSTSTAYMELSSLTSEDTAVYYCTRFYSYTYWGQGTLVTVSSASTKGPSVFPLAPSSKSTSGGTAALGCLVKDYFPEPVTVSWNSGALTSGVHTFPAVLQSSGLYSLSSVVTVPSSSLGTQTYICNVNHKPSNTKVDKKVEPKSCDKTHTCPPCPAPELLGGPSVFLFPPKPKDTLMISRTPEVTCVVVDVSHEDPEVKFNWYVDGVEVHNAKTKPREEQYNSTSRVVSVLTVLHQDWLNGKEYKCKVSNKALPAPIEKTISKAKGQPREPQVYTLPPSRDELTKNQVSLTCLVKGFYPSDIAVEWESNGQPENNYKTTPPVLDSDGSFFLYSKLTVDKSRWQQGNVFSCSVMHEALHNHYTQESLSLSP
light: B1 light
notes: as for B33
B44: GpH7-B3 variant Y300_02A/GpL16-k0 (homodimerized antibody, Ho Ab) (antibody, human IgG1, kappa)
heavy: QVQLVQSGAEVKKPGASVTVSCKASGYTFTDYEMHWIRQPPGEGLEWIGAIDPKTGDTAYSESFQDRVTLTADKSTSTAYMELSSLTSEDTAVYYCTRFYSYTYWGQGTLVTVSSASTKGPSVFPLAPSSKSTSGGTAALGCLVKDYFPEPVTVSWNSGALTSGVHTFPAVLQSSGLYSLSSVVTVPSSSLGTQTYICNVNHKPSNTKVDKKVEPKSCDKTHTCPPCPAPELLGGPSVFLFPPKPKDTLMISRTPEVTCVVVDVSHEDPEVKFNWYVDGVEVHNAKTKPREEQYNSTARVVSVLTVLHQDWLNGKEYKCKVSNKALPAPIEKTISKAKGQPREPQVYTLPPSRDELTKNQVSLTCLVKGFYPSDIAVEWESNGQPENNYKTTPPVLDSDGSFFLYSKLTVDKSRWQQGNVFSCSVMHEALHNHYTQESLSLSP
light: B1 light
notes: as for B33

Target: T1, FcγRIa (human, UniProt P12314 16-292)
T1 construct: extracellular domain; Soluble extracellular domain with C-terminal His tag, expressed in FreeStyle293 cells; analyte in Biacore; also called FcgRI; CD64; not shown: His tag attached to the C terminus
Assay: SPR (Biacore), antibody captured on antigen-peptide chip, FcγRIa as analyte; binding activity relative to control GpH7-A5/GpH7-B3/GpL16-k0 (HeCon Ab) x100
Procedure: (§1) Analysis of interaction between objective antibody and the FcγR was carried out using Biacore T100 (GE Healthcare). HBS-EP+ (GE Healthcare) was used as the running buffer, and the measurement temperature was set to 25° C. Chips produced by immobilizing the antigen peptide by the amine coupling method to a Series S Sencor Chip CM5 (GE Healthcare), or alternatively, chips produced by allowing preliminarily biotinylated antigen peptides to interact with and immobilize onto a Series S Sensor Chip SA (certified) (GE Healthcare) were used. Antibodies of interest were captured onto an antigen peptide-immobilized chip, and allowed to interact to each FcγR diluted with running buffer. To regenerate and repeatedly use the chip, the antibodies captured on the chip were washed off by reacting 10 mM glycine-HCl, pH 1.5.

T1 sequence (P12314 16-292): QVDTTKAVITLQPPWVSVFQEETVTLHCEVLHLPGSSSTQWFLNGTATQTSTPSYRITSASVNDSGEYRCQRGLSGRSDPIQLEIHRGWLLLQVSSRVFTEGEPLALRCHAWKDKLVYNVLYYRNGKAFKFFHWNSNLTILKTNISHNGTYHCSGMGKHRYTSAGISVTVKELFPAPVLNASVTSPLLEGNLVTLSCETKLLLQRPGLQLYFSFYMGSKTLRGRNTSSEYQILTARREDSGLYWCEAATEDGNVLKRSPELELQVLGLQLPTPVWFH

Binder	He/Con_1a
B1	116 % of control (=100)
B2	112 % of control (=100)
B3	105 % of control (=100)
B4	114 % of control (=100)
B5	106 % of control (=100)
B6	106 % of control (=100)
B7	111 % of control (=100)
B8	113 % of control (=100)
B9	107 % of control (=100)
B10	104 % of control (=100)
B11	112 % of control (=100)
B12	105 % of control (=100)
B13	105 % of control (=100)
B14	105 % of control (=100)
B15	106 % of control (=100)
B16	112 % of control (=100)
B17	112 % of control (=100)
B18	112 % of control (=100)
B19	111 % of control (=100)
B20	106 % of control (=100)
B21	106 % of control (=100)
B22	106 % of control (=100)
B23	112 % of control (=100)
B24	106 % of control (=100)
B25	112 % of control (=100)
B26	117 % of control (=100)

Target: T2, FcγRIa extracellular domain with C-terminal His tag (human, UniProt P12314 16-292)
T2 construct: extracellular domain; expressed in FreeStyle293 cells; analyte in Biacore; also called FcgRI; 1a
Assay: SPR (Biacore), captured antibody, FcγR as analyte; relative binding

T2 sequence (P12314 16-292): as above

Binder	He/Con_1a
B27	79.9 % of HeCon Ab (GpH7-A5/GpH7-B3/GpL16-k0 = 100)
B28	54.4 % of HeCon Ab (GpH7-A5/GpH7-B3/GpL16-k0 = 100)
B29	75.7 % of HeCon Ab (GpH7-A5/GpH7-B3/GpL16-k0 = 100)
B30	55.7 % of HeCon Ab (GpH7-A5/GpH7-B3/GpL16-k0 = 100)
B31	84.5 % of HeCon Ab (GpH7-A5/GpH7-B3/GpL16-k0 = 100)
B32	53 % of HeCon Ab (GpH7-A5/GpH7-B3/GpL16-k0 = 100)

Target: T3, FcγRIIb extracellular domain with C-terminal His tag (human, UniProt P31994 43-217)
T3 construct: extracellular domain; expressed in FreeStyle293 cells; analyte in Biacore; also called FcgRIIb; 2b
T3 sequence (looked up): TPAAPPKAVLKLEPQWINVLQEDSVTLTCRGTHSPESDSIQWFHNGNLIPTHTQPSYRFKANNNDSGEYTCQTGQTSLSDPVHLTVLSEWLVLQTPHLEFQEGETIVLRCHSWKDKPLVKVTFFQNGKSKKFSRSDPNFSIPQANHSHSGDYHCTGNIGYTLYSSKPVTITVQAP
Assay: as above

Binder	He/Con_2b
B27	16.1 % of HeCon Ab (GpH7-A5/GpH7-B3/GpL16-k0 = 100)
B28	1.3 % of HeCon Ab (GpH7-A5/GpH7-B3/GpL16-k0 = 100)
B29	10 % of HeCon Ab (GpH7-A5/GpH7-B3/GpL16-k0 = 100)
B30	3.2 % of HeCon Ab (GpH7-A5/GpH7-B3/GpL16-k0 = 100)
B31	19.9 % of HeCon Ab (GpH7-A5/GpH7-B3/GpL16-k0 = 100)
B32	3.2 % of HeCon Ab (GpH7-A5/GpH7-B3/GpL16-k0 = 100)

Target: T1, FcγRIa
Assay: SPR (Biacore), antibody captured on antigen-peptide chip, FcγRIa as analyte; binding activity relative to control GpH7-B3/GpL16-k0 (HoCon Ab) x100
Procedure: as §1

Binder	Ho/Con_1a
B33	112 % of control (=100)
B34	110 % of control (=100)
B35	110 % of control (=100)
B36	106 % of control (=100)
B37	101 % of control (=100)
B38	111 % of control (=100)
B39	111 % of control (=100)
B40	109 % of control (=100)
B41	111 % of control (=100)
B42	110 % of control (=100)
B43	110 % of control (=100)
B44	110 % of control (=100)

Target: T2, FcγRIa extracellular domain with …
Assay: SPR (Biacore); He/Con_1a divided by He/Con_2b (FcγRIIb as reference)

Binder	He_1a/2b (Ia/IIb) [ratio]
B27	4.95
B28	41.2
B29	7.57
B30	17.3
B31	4.25
B32	16.8
